Reference: the Human Domainome abundance scans (Beltran et al. 2025)
± gives the uncertainty stated by the source.

B1: GA-binding protein alpha chain, residues 172 to 250; numbered along this chain, Q06546 (parent)
chain: GYRKEQERLGIPYDPIQWSTDQVLHWVVWVMKEFSMTDIDLTTLNISGRELCSLNQEDFFQRVPRGEILWSHLELLRKY

Variants of: B1
Test: abundance fitness (aPCA) (normalised: wild type 0, dead -1); higher = more abundant; growth selection in yeast, the domain comes from the species named
Settings: Homo sapiens

Abundance fitness, by site and new letter:
K78: L -0.135 ± 0.034 | V -0.078 ± 0.03 | A 0 ± 0.034 | W -0.23 ± 0.047 | E -0.05 ± 0.067 | F -0.086 ± 0.082 | Y -0.208 ± 0.085 | S -0.045 ± 0.046 | H -0.015 ± 0.11 | M -0.071 ± 0.072 | N 0.096 ± 0.085 | P -0.195 ± 0.066 | Q -0.059 ± 0.087 | D 0.023 ± 0.1 | G 0.033 ± 0.024 | R 0.003 ± 0.033 | I -0.009 ± 0.16
L69: R -0.977 ± 0.075 | A -0.311 ± 0.032 | N -0.974 ± 0.46 | E -0.934 ± 0.2 | K -1 ± 0.33 | C -0.57 ± 0.069 | M -0.124 ± 0.051 | G -1.04 ± 0.089 | F -0.027 ± 0.061 | H -0.259 ± 0.14 | V -0.393 ± 0.04 | S -0.882 ± 0.089 | D -0.758 ± 0.38 | Y -0.265 ± 0.08 | W -0.432 ± 0.044 | P -1.06 ± 0.16 | I -0.499 ± 0.19
E67: W -0.153 ± 0.05 | V -0.118 ± 0.036 | S -0.057 ± 0.037 | T -0.038 ± 0.05
R77: H -0.07 ± 0.12 | V -0.343 ± 0.055 | K 0.016 ± 0.081 | L -0.165 ± 0.047 | I -0.23 ± 0.084 | E -0.36 ± 0.11 | M -0.348 ± 0.15 | Q -0.299 ± 0.091 | N -0.119 ± 0.13 | T -0.246 ± 0.048 | C -0.255 ± 0.071 | S -0.311 ± 0.043 | D -0.382 ± 0.12 | G -0.515 ± 0.056 | F -0.859 ± 0.2 | W -0.873 ± 0.28 | A -0.547 ± 0.056
S71: T 0.021 ± 0.052 | R -0.034 ± 0.036 | L -0.156 ± 0.04 | N -0.115 ± 0.06 | F -0.102 ± 0.07 | G -0.01 ± 0.034 | Q 0.01 ± 0.053 | W -0.042 ± 0.032 | I -0.157 ± 0.059 | A -0.046 ± 0.039 | P -0.102 ± 0.044 | V -0.131 ± 0.046 | E -0.021 ± 0.11 | H -0.029 ± 0.079 | Y -0.027 ± 0.18 | M -0.162 ± 0.076 | C -0.167 ± 0.067 | D 0.027 ± 0.074 | K -0.102 ± 0.084
W70: N -0.766 ± 0.22 | Y -0.058 ± 0.082 | M -0.557 ± 0.095 | C -0.793 ± 0.12 | V -0.92 ± 0.1 | Q -0.875 ± 0.2 | E -0.801 ± 0.12 | K -0.872 ± 0.25 | R -0.526 ± 0.036 | S -0.913 ± 0.087 | T -1.05 ± 0.16 | G -0.843 ± 0.062 | H -0.494 ± 0.13 | F -0.181 ± 0.083 | A -0.748 ± 0.071
L76: R -0.677 ± 0.07 | I -0.236 ± 0.096 | S -0.676 ± 0.06 | H -0.317 ± 0.19 | W -0.621 ± 0.065 | E -0.521 ± 0.091 | V -0.182 ± 0.038 | M -0.093 ± 0.11 | Q -0.416 ± 0.094 | P -0.727 ± 0.083 | C -0.119 ± 0.05 | K -0.876 ± 0.28 | A -0.534 ± 0.048 | G -0.95 ± 0.08 | T -0.29 ± 0.059 | F -0.354 ± 0.061
E74: I -0.302 ± 0.071 | V -0.213 ± 0.041 | Y -0.287 ± 0.1 | T -0.161 ± 0.094 | D -0.023 ± 0.058 | W -0.336 ± 0.085 | N -0.226 ± 0.13 | G -0.066 ± 0.041 | A -0.061 ± 0.044 | Q -0.075 ± 0.11 | C -0.138 ± 0.1 | F -0.322 ± 0.1 | K -0.106 ± 0.17 | S -0.051 ± 0.04 | L -0.109 ± 0.04 | P -0.904 ± 0.13
L73: G -0.937 ± 0.077 | M -0.347 ± 0.059 | C -0.979 ± 0.2 | T -0.97 ± 0.15 | N -0.979 ± 0.23 | K -0.422 ± 0.18 | V -0.376 ± 0.052 | A -0.736 ± 0.071 | Y -0.962 ± 0.47 | P -0.658 ± 0.063 | E -0.758 ± 0.19 | W -0.173 ± 0.055 | Q -0.713 ± 0.22 | I -0.542 ± 0.088
Y79: D 0.06 ± 0.15 | R -0.054 ± 0.049 | W -0.09 ± 0.055 | P 0.009 ± 0.042 | F 0.062 ± 0.095 | C -0.061 ± 0.063 | G 0.031 ± 0.067 | Q 0.006 ± 0.097 | I -0.09 ± 0.11 | V -0.096 ± 0.065 | T -0.148 ± 0.084 | M -0.299 ± 0.15 | K 0.146 ± 0.13 | A -0.021 ± 0.084 | N 0.107 ± 0.1 | E 0.01 ± 0.11 | L -0.032 ± 0.052 | S 0.038 ± 0.04 | H 0.002 ± 0.078
I68: G -0.087 ± 0.039 | W -0.115 ± 0.045 | E -0.044 ± 0.042 | F -0.053 ± 0.077 | Q -0.077 ± 0.048 | A 0.017 ± 0.046 | V -0.021 ± 0.038 | C -0.055 ± 0.06 | Y -0.037 ± 0.071 | M -0.091 ± 0.058 | L -0.037 ± 0.032 | S -0.076 ± 0.041 | N -0.194 ± 0.096
